± gives the uncertainty stated by the source.
B1: POU domain, class 4, transcription factor 1, residues 266 to 347; numbered along this chain, Q01851 (parent)
chain: RELEAFAERFKQRRIKLGVTQADVGSALANLKIPGVGSLSQSTICRFESLTLSHNNMIALKPILQAWLEEAEGAQREKMNKP

Variants of: B1
Assay: abundance fitness (aPCA) (normalised: wild type 0, dead -1); higher = more abundant; growth selection in yeast, the domain comes from the species named
Conditions: Homo sapiens

Variant | abundance fitness
RECEAFAERFKQRRIKLGVTQADVGSALANLKIPGVGSLSQSTICRFESLTLSHNNMIALKPILQAWLEEAEGAQREKMNKP | -0.901 ± 0.22
RELEAFAERFKQRRIKLGVTQADVGSALANLKIPGVGSLSQSTICRFESLTLPHNNMIALKPILQAWLEEAEGAQREKMNKP | 0.02 ± 0.055
RELEAFAERFKQRREKLGVTQADVGSALANLKIPGVGSLSQSTICRFESLTLSHNNMIALKPILQAWLEEAEGAQREKMNKP | 0.02 ± 0.054
RELEAFAERFKQRRIKLGVTQADVGSALANLKIPGVGSLSQSTICRFESLTLSHNNMIALKPILQAWLEEAHGAQREKMNKP | -0.456 ± 0.18
RELEAFAERFKQRRIKLGVTQADVGSALANLKIPGVGSLSQSTICRFESLTLSHNNMIALKPILQAWLEEARGAQREKMNKP | -0.421 ± 0.051
RELEAFAERFKQRRIKLGVTQADVGSALANLKIPGVGSLSQSTICRFESLTLSHNNMIALKPILQAWLEEADGAQREKMNKP | -0.259 ± 0.11
RELEAFAERFKQRRIKLGVTQADVGSALANLKIPGVGSLSQSTICRFESLTLSHNNMIALKPILQAWLEEAEGAQDEKMNKP | -0.015 ± 0.039
RELEAFAERFKQRRIKLGVTQADVGSALANLKIPGVGSLSQSTICRFESLTLSHNKMIALKPILQAWLEEAEGAQREKMNKP | 0.015 ± 0.069
RELEAFAERFKQRRIKLGVTQADVGSALANLKIPGVGSLSQSTICRFESLTLSHNNMIALKPILQAWREEAEGAQREKMNKP | -0.774 ± 0.12
RELEAFAERFKQRRIKLGVTQADVGSALANLKIPGVGSLSQCTICRFESLTLSHNNMIALKPILQAWLEEAEGAQREKMNKP | -0.071 ± 0.055
RELEAFAERFKQRRIKLGVTQADVGSAQANLKIPGVGSLSQSTICRFESLTLSHNNMIALKPILQAWLEEAEGAQREKMNKP | -0.628 ± 0.052
RELEAFAERFKQRRIKLGVTQADVGSALAVLKIPGVGSLSQSTICRFESLTLSHNNMIALKPILQAWLEEAEGAQREKMNKP | -0.233 ± 0.061
RELEAFAERFKQRRIKLGVTQADVGSALAHLKIPGVGSLSQSTICRFESLTLSHNNMIALKPILQAWLEEAEGAQREKMNKP | 0.054 ± 0.15
RELEAFAERFKQRRIKLGVTQADVGSALAQLKIPGVGSLSQSTICRFESLTLSHNNMIALKPILQAWLEEAEGAQREKMNKP | 0.026 ± 0.071
RELEAFAERFKQRRIKLGVTQADVGSALANLKIPGVGSLSQSTICRFESLTLSHNNMIALKPILQAWLEEAEGAQREKSNKP | -0.024 ± 0.026
RELEAFAERFKQRRIKLGVTQADVGSALANLKIPGVGSLSQSTICRFESLTLSHNNMIALKPILQAWLEEAEGAQREKANKP | 0.004 ± 0.027
RELEADAERFKQRRIKLGVTQADVGSALANLKIPGVGSLSQSTICRFESLTLSHNNMIALKPILQAWLEEAEGAQREKMNKP | -0.442 ± 0.041
RELEAEAERFKQRRIKLGVTQADVGSALANLKIPGVGSLSQSTICRFESLTLSHNNMIALKPILQAWLEEAEGAQREKMNKP | -0.359 ± 0.03
RELEAFAERFKQRRIKLGVTQADVGSALANLKIPGGGSLSQSTICRFESLTLSHNNMIALKPILQAWLEEAEGAQREKMNKP | -0.142 ± 0.11
RELEAFAERFKQRRIKLGVTQADVGSALANLKIPGVGSLSQSTICRFESLTLSHTNMIALKPILQAWLEEAEGAQREKMNKP | 0.034 ± 0.067
RELEAFAERFKQRRIKLGVTQADVGSALANLKIPGVGSLSQSTICNFESLTLSHNNMIALKPILQAWLEEAEGAQREKMNKP | 0.047 ± 0.2
RELEAFAERFKQRRIKLGVTQADVGSALANLKIPGVGSLSQSTICRFESLFLSHNNMIALKPILQAWLEEAEGAQREKMNKP | -0.406 ± 0.053
RELGAFAERFKQRRIKLGVTQADVGSALANLKIPGVGSLSQSTICRFESLTLSHNNMIALKPILQAWLEEAEGAQREKMNKP | -0.166 ± 0.034

Variant | abundance fitness
RELDAFAERFKQRRIKLGVTQADVGSALANLKIPGVGSLSQSTICRFESLTLSHNNMIALKPILQAWLEEAEGAQREKMNKP | -0.031 ± 0.059
RELEAFAERFKQRRIKLGVTQADVGSALANLKIPGVGSLSHSTICRFESLTLSHNNMIALKPILQAWLEEAEGAQREKMNKP | 0.149 ± 0.11
RELEAFAERFKQRRIKLGVTQADVGFALANLKIPGVGSLSQSTICRFESLTLSHNNMIALKPILQAWLEEAEGAQREKMNKP | -0.008 ± 0.078
RELEAFAEVFKQRRIKLGVTQADVGSALANLKIPGVGSLSQSTICRFESLTLSHNNMIALKPILQAWLEEAEGAQREKMNKP | -0.047 ± 0.065
RELEAFAEREKQRRIKLGVTQADVGSALANLKIPGVGSLSQSTICRFESLTLSHNNMIALKPILQAWLEEAEGAQREKMNKP | -0.916 ± 0.053
RELEAFAERFKQPRIKLGVTQADVGSALANLKIPGVGSLSQSTICRFESLTLSHNNMIALKPILQAWLEEAEGAQREKMNKP | -1.06 ± 0.2
RELEAFAERFKQMRIKLGVTQADVGSALANLKIPGVGSLSQSTICRFESLTLSHNNMIALKPILQAWLEEAEGAQREKMNKP | -0.023 ± 0.057
RELEAFAERFKQHRIKLGVTQADVGSALANLKIPGVGSLSQSTICRFESLTLSHNNMIALKPILQAWLEEAEGAQREKMNKP | -0.103 ± 0.062
RELEAFAERFKQCRIKLGVTQADVGSALANLKIPGVGSLSQSTICRFESLTLSHNNMIALKPILQAWLEEAEGAQREKMNKP | -0.369 ± 0.048
RELEAFAERFKQRRIKLGVTQADVGSALANLKIPGVGSLDQSTICRFESLTLSHNNMIALKPILQAWLEEAEGAQREKMNKP | 0.042 ± 0.099
RELEAFAERFKQRSIKLGVTQADVGSALANLKIPGVGSLSQSTICRFESLTLSHNNMIALKPILQAWLEEAEGAQREKMNKP | -0.906 ± 0.059
RELEAFAERFKQRWIKLGVTQADVGSALANLKIPGVGSLSQSTICRFESLTLSHNNMIALKPILQAWLEEAEGAQREKMNKP | -1.02 ± 0.098
RELEAFFERFKQRRIKLGVTQADVGSALANLKIPGVGSLSQSTICRFESLTLSHNNMIALKPILQAWLEEAEGAQREKMNKP | -0.721 ± 0.069
RELEAFAERFKQRRIKLGVTQADVGSALANLKIPGVGSLSQSTICRFESLTLSHNNMINLKPILQAWLEEAEGAQREKMNKP | -0.278 ± 0.2
RELEAFAERFKQRRIKLGVTQADVGSALANLKIPGVGSLSQSTICRFESLTLSHNNMIILKPILQAWLEEAEGAQREKMNKP | -0.021 ± 0.12
RELEAFAERFKQRRIKLGVTQADVGSALANLKIGGVGSLSQSTICRFESLTLSHNNMIALKPILQAWLEEAEGAQREKMNKP | -0.088 ± 0.024
RELEAFAERFKQRRIKLGVTQADVGSALANLKILGVGSLSQSTICRFESLTLSHNNMIALKPILQAWLEEAEGAQREKMNKP | -0.186 ± 0.036
RELEAFAERFKQRRIKLGVTQADVGSALANLKIPGVGWLSQSTICRFESLTLSHNNMIALKPILQAWLEEAEGAQREKMNKP | -0.095 ± 0.14
RELEAFAERFKQRRIKLGVTQADVGSALANLKIPGVGSLSQSTICRFESVTLSHNNMIALKPILQAWLEEAEGAQREKMNKP | -0.006 ± 0.033
RELEAFAERFKQRRIKLGVTQADVGSALANLKIPGVGSLSQSTICRFESFTLSHNNMIALKPILQAWLEEAEGAQREKMNKP | 0.052 ± 0.042
RELEAFAERFKQRRIKLGVTQADVGSALANLKIPGVGSLSQSTICRFESLTLSHNNMIALEPILQAWLEEAEGAQREKMNKP | -0.022 ± 0.056
RELEAFAERFKQRRIKLGVTQADVGSALANLKIPGVGSLSQSTICRFESLTLSHNNMIALNPILQAWLEEAEGAQREKMNKP | -0.388 ± 0.08
RELEAFAERFKQRRIKLGVTQADVGSALANLKIPGVGSLSQSTICRFESLTLSHNNMIALKPILQAWLEEAEGAQREWMNKP | 0.007 ± 0.063

Variant | abundance fitness
RELEAFAERFKQRRIKLGVTQADVGSALANLKIPGVGSLSQSTICRFESLTLSHNNMIALKPILQAWLWEAEGAQREKMNKP | -0.224 ± 0.056
RELEAFAERFKQRRIKLGVTQADVGSALANLKIPGVGSLSQSTICRFESLTLSHNNMIACKPILQAWLEEAEGAQREKMNKP | 0.074 ± 0.17
RELEAFAERFKQRRIKLGVTHADVGSALANLKIPGVGSLSQSTICRFESLTLSHNNMIALKPILQAWLEEAEGAQREKMNKP | 0.006 ± 0.1
RELEAFAERFKQRRIKLGVTEADVGSALANLKIPGVGSLSQSTICRFESLTLSHNNMIALKPILQAWLEEAEGAQREKMNKP | -0.023 ± 0.049
RELEAFAERFKQRRIKLGVTQADVGSALANLKIPGVGSLSQSTQCRFESLTLSHNNMIALKPILQAWLEEAEGAQREKMNKP | -0.989 ± 0.34
RELEAFAERFKQRRIKLGVTQADVGSALANLKIPGVGSLSQSTSCRFESLTLSHNNMIALKPILQAWLEEAEGAQREKMNKP | -0.68 ± 0.12
RELEAFAERFKQRRIKLGVTQADVGSALANLVIPGVGSLSQSTICRFESLTLSHNNMIALKPILQAWLEEAEGAQREKMNKP | -0.009 ± 0.059
RELEAFAERFKQRRIKLGVTQYDVGSALANLKIPGVGSLSQSTICRFESLTLSHNNMIALKPILQAWLEEAEGAQREKMNKP | 0.043 ± 0.12
RELEAFAERFKQRRIKLGVTQADVGSALANLKIPGVGSLSQSTICRFESLTLSHNNMIALKPIPQAWLEEAEGAQREKMNKP | -0.711 ± 0.24
RELEAFAERFKQRRIKLGPTQADVGSALANLKIPGVGSLSQSTICRFESLTLSHNNMIALKPILQAWLEEAEGAQREKMNKP | -0.827 ± 0.25
RELEAFAERFKQRRIKLGVTQADVGSALANLKIPGVGSLSQSTICRFESLTLSHNNMIALKPILQTWLEEAEGAQREKMNKP | -0.012 ± 0.033
RNLEAFAERFKQRRIKLGVTQADVGSALANLKIPGVGSLSQSTICRFESLTLSHNNMIALKPILQAWLEEAEGAQREKMNKP | 0.025 ± 0.049
RELEAFAERFKQRRIKLGVTQADVGSALANLKIPGVGSLSQSTICRFESLTLSHNNMIALKYILQAWLEEAEGAQREKMNKP | -0.562 ± 0.21
RELEAFAERFKQRRIKLGVTQADVGSALANLKIPGVGSLSQSTICRFESLTLSHNNMIALKEILQAWLEEAEGAQREKMNKP | -0.413 ± 0.067
RELEAFAERFVQRRIKLGVTQADVGSALANLKIPGVGSLSQSTICRFESLTLSHNNMIALKPILQAWLEEAEGAQREKMNKP | -0.142 ± 0.056
RELEAFAERFLQRRIKLGVTQADVGSALANLKIPGVGSLSQSTICRFESLTLSHNNMIALKPILQAWLEEAEGAQREKMNKP | -0.406 ± 0.074
RELEAFAERFKQRRIKLGVTQADDGSALANLKIPGVGSLSQSTICRFESLTLSHNNMIALKPILQAWLEEAEGAQREKMNKP | -0.66 ± 0.16
RELEAFAERFKQRRIKLGVTQADMGSALANLKIPGVGSLSQSTICRFESLTLSHNNMIALKPILQAWLEEAEGAQREKMNKP | -0.253 ± 0.079
RELEAFAERFKQRRIKLGVTQADLGSALANLKIPGVGSLSQSTICRFESLTLSHNNMIALKPILQAWLEEAEGAQREKMNKP | -0.062 ± 0.049
RELEAFAERFKQRRIKLGVTQADVGSALANLKIPGVGSLSQSTICRFESLTLSHNNMIALKPILQAWLEEAEGFQREKMNKP | -0.035 ± 0.036
RELEAFAERFKQRRIKLGVTQADVGSALANLKIPGVGSLSQSTICRFESLTLSHNNMIALKPILQAWLEEAEGEQREKMNKP | 0.025 ± 0.029
